The values that follow come from the DeepSol protein solubility set.

A short description of the series: soluble on expression in E. coli; label from the status in PepcDB or PDB records.
“MAISKKKRFFFDLAQDEDDAETVQEVKKVEQQLKLEPVVQPQHDLTNQTKANQSSQDRKFFSKDMPQFDFGPLLKFGDEFVKSFNQFPKQEPQTSTQPVNVQPQSEPTNFNNQVPTQPVHQTAEVHLNEFQQPTTTNFNQQPVATSNIQVEATQPIVEPVPQPEPQPAVEQPQVKQTTRPSNKLQEEENLPPPKAKVPGIIPLERQERLTTGVHFYTSTRVWNKVKRYAKAVNIPISRILTMILDQVIEE”: the “soluble on expression in E. coli” value was “soluble”. With “LEMKGKRMSVTAVMRELEKEENLYRRSGGGITLSGGEPLAQPEFARELLKACKAKGWHTAIETSGFTTKAVIDEVFPYVDLALTDIKAIDPEIHERNTGVNNRVILENLLRISFLTKVVVRIPVIPGVNDNSQEIHNIAEFARLMQNVDTIHLLPYHSFGENKYNLLGRQYPMGDTKSIEESQMAELKAMVESLGFNCHIGG”, the “soluble on expression in E. coli” value was “not soluble”.

On to “MSLGGTGKVGVILPLLTSPFWQSYNDYVPKMAKSEGVDTLKTVNSNSDPSQQITDINNQLNQGVKGLVVAPLDSAAIEAGLDQADRKGVPVVAVDVAPEKGKVAMVVRADNVAYGEKACQYLGEQVTSGKVVQIMGDLASVNGRDRSEAFRTCVRKNYPKLKVLEIPAKWESDTAASKLDTLLNANPDIKGIYMQAGGVYLAPTLQTLKSKGLLKKTGEKGHITIVSNDGIPQEFDAIRKGQIDATVSQPADAYAKYGMYYIKAAMQGKTFKPGPTDHDSTIVKLPSGILEDQLPAPLVTKDNVDDAKLWGNTEGHHHHHH”, for which the “soluble on expression in E. coli” value is given as “soluble”.

As for “MTALITQFWQQVETALKTANPQEKCRLVNDLYDNLLPQIQLIKLEDFPEIVPQDNIAAFPEKPLLVAPKDVPKRSFATEEGYAATLHAIAHIEFNAINLGLDAAWRFGRNAQEELGEGLAFVKDWLRVAREESTHFSLVNEHLKTLGYQYGDFEAHAGLWEMAQATAHDIWERMALVPRVLEARGLDATPVLQEKIAQRKDFAAVNILDIILRDEIGHVYIGNHWYHALSKKRGLDAMKCFTELLHKYRIVIFKGVINTDARIQAGFTQHELDWIYEVEQTLKSYIKKLEHHHHHH”, the “soluble on expression in E. coli” value is on record as “soluble”. For the sequence “MGSDKIHHHHHHMEKQYEYVHEKFRHLVIASNQERIEFLDEPRWVGYAVANKIIDNLVSLMNKPKRPRMFNLLVVGDSNNGKTTLIRHFYDLYGIPFVDSQSDGIRPIILAEAPPSANEKELYISLLERFYVPYRPTDSVAKLRYQTIHLFREYKVKMLIIDEFHSLLVGTPRLQRQVMNAIKMLCNELQIPIVGVGTKDAIRVLHTDPQHASRFDVAELPTWKLDKDFQKLLFQFQGILPLKKCSNLQSPELATKIHTISGGNLGNVHRLLTACAIEAITTGTEQITLDIIEHNSWVQPTQGLRKIIG”, the “soluble on expression in E. coli” value was “not soluble”. Turning to “MIEKVLVVVIIGVVGAYAQGSCRTDQHEMTCRGKNSLHDLKKDQDYLEVDTLNVHQAKLDLTDDLVPDGINLSHLTLLNATDNQITRIGRRGFDKIRNMQFLYLSINQISHSQPDPFQALEKLKRLEMNDALDGNMEEKSDMLRNFFHSKNSFVHLAQIELNKNKIEGIYPKTFCGIQGLQRLELSNNRIPSFDFARTCLKELKALMLAGNLIQKIPADIWDFLPSLSSLDISNNPIDCDCATIRLLSGDDVVFLNQADTKCASPPELEGKRIFELSRDYCKTTRNPRGKASFFQFLVLFVIAVGSEFLF”, the “soluble on expression in E. coli” value was “not soluble”. For “MVYVIGMGARGREGLSLKALRRLEEAEVLIGGRRHLAHFPDHPGEKVPVQGPLEALLDLAEARLKEGKKVAFLASGDPLFYGIGKRVLERFPEAEVHPAPTAFQEAFARLKLPWDQARFFSLHGRPLGGVLLELSLSPLSVVYTDPEHTPAGIARALLEMGVDARAHVAERLGEEDERVRSFAGLKEVAEERFLDPNVLILEAKGPLPPRLGFFPDEAFEQRMPKKGLITKREVRLLALGLLGLPPDGVLWDIGAGTGSVGIEAARLAPWGEVYAVEKNPESWPHIVENARRFGAFNLHLVKGEAPEALKGLPAPHAVFVGGSGGELEEILRVSLKALRPGGRLVVAAITLENLLAAYGFLKGTGLPLEGFQVQASRVVPLARYHRLEAQNPITLLAVTKEGA”, the “soluble on expression in E. coli” value is listed as “soluble”.

With “MELPSMNVPFSRYCWVTLTIQDHLPIDSFRSLNLSITNDNYSGGDLKAYPADFNGILAGNWFTFSPVTYSMKLQYNYTNGAEEATRVRVYCKSPLPYWLPYCG”, the “soluble on expression in E. coli” value was “not soluble”.

“MGSDKIHHHHHHMTEDEAITQLRRFVAALESGSRRNANDAAFALLAGNPPLGDRWQSIAHVMQTNGEYSAAHLAMARFAAHRADPNARFAQAAMLAQTGQLEEAWKVMGSVPFGVPSVSGHHYIRGTIAVNLGHIEDAEKHLLAAIEAEPALGQAMLSLAAARKRKAGDPIGDRILSAEPRMEGAPPLERAHFHYAAGRVHFDRREPDEAFRHFSAGAELVRGWRSYDAAADARDAAECRQGFDRDFVDKINNLVTLDTSQPIFVTGLPRSGTTLVEQILVSHSAVSGGEELGRMGVVRRDLTSLSAKGLSDYLQAGGNADDLAALYLHLGQERFGKEGRFVDKALNTSRFTGLIAALLPHAPIVWLRRDPADCAFSAYRTYFINGLDWSWNLEDIATHFALEDQLFHHWSRMFPDRILAVDYQQLVQEPQAQIRRILAHCNLEEEPQVFRPHETQRVVSTASVMQVREPINTGAVGAAGAYRLHLAPFVDRYEALSAAT”: the “soluble on expression in E. coli” value is given as “not soluble”. With “MLEIRHLKTLHALREADSLVDAAERLHLTQSALSHQFKELEERMGMPLFVRKTKPVRFTSAGLRLLQLADSMLPQLRSAERDIARLAGGTAGRLHMAIECHSCFQWLMPTIDQFRDAWPEVELDLSSGFSFAPLPALARGDLDLVVTSDPLELPGITYVPLFTYEAMLAVANQHALASKPYIVPEDLLPETLITYPVERDRLDIFTRFLEPADIEPAQVRTSELTVMMMQLVASGRGVCGMPHWALHEYSSRGYVKAKRLGEKGLFATLYAGIRADMLDAPYMRDFLLTAKDTSFSTLDGVSVVR”, the “soluble on expression in E. coli” value is recorded as “not soluble”. For “MGSDKIHHHHHHMTIWVRNGNNAATEQEISAKETELGLFLPAEYKELLLKQNGGLIRKNHFPTNEPTSYGLDVAEIYYLASLNELLTDIPEQNDVDLAGKQVYFHRDESRYIGFSYADNKSLPSIIYVDFETLQTLVVAENMAEFLEALYFSPFPVDFAEQFPVKKLDQILASSNVKKTKQLLELLEDYPDKKWYLETLIRLLQKNEIPYNIVVYQSFENQLLYFRRKLVPELVEKIFAMLKDCDGIDQSATTELYKEWE”, the “soluble on expression in E. coli” value is listed as “not soluble”. In the case of “MNLFYNKEAVGDVAFLQINPTEGEYNYVTQGDVVEIQNDGEVVGYNIFNASNKATLTGNGHIKLTETLVQAFQKAIEAAGFTYKLDADFTPKFVVGYVETKDKHPDADKLSVLSVDVATEKLQIVCGAPNVEAGQKVVVAKVGAVMPSGMVIKDAELRGVASSGMICSMKELGLPNAPQEKGIMVLSDDYTVGQSFFEVLEHHHHHH” it was “soluble”. Take “MSSKSTKRAKIEDPKDNVFMVEKVLDKRTGKAGRDEFLIQWQGFPESDSSWEPRENLQCVEMLDEFEREFSKREKPIRKRHSQKPEPSEDQADPEEDKDEKKETNQNDKFSLEGKQLKCIVGLTKGPGELHFLCKFSDDTARLLPAKEVNSRYPSQVIRYYESKLTIQDPKADEL”: the “soluble on expression in E. coli” value is on record as “not soluble”. In the case of “MSLTLGIAFVGSGFSAKFHLRGLVGVRNVEVKGVYSRNLNSSKEFAMLSEQLGLGKPKVYSDISKMLSDKEINAVWLTVPNDVHLEYTKLIAEEVSQGRSNIHGITIEKPLARNVKEAKEMIRLVEKAGLLHGYLENQIFMPSVVRAREAIWEIGSRNSGRPYLARAAEEHSGPHNSWFWRPTISGGGALIDMTCHSLEATRFLLTDPAKTKSSLKPKTVYAETKTLKWNKKEYAQYLKEKYNVDFLKEPAEDYALTIVTYEDDLGNSVLAETRTSWNYVGPGLRLSVEVLGPEYSVNINTLQSELSVFFSRNIKLPQSEAFVEKQNADQGLMPIILDEAVVYGYQGEDRHMVESFISRKMPFENWYDGLLIVQLMMHAYLSAENGRKISFDPQKVEDFIPKVARGLYSAEGHHHHHH”, the “soluble on expression in E. coli” value was “soluble”. In the case of “SPSSPLRVAVVCSSNQNRSMEAHNILSKRGFSVRSFGTGTHVKLPGPAPDKPNVYDFKTTYDQMYNDLLRKDKELYTQNGILHMLDRNKRIKPRPERFQNCTDLFDLILTCEERVYDQVVEDLNSREQETCQPVHVVNVDIQDNHEEATLGAFLICELCQCVSLSSWVLLGLLIATYKNKIK” it was “soluble”; in that of “MSLKRQRIVIKIGSSSLTTKQGALDLEKLEGYVRAIVNLRKAGHEVILISSGAVAAGFSRLGYPVRPTTMAGKQAAAAVGQALLMQHYMERFHQHGIIAAQLLLTRKDFQNQTQYTNAYSALMELLKRGALPIINENDSTSIAELTFGDNDMLSALVSGLIHAHTLCILTDVNGLYDANPKTHPNAKRYQYLPTIPDEMLQMGGEAGSNVGTGGMKSKVAAAQTALSLGVDVFIGKASGEHALLDILSGKGDGTYVGNTGDLMEGKTKQWIRLHSPVSGVVRIDQGAERAIMNEGKSLLPAGVTSVHGTFQAGDVVHIWNEQNKVIAKGQVTLSSEQLRKVQGRKSDEAKQLIPLVRDEVVHRDQLVIQEKELNESEGHHHHHH”, “not soluble”; in that of “MEKITFEQVKEAVFHEKMSNGLQVYLLPKQGFSKTYAVFTTNYGAIDNNFVPIGETEFTKVPDGIAHFLEHKMFEKEDGDVFFKFGEKGAFTNAFTSFTKTAYLFSSTSRVEENLETLIDFVQEPYFTEETVEKEKGIIGQEIRMYDDDPDFRAYFGVIENMYHNHPVKIDIAGTVESIAEINKDLLYLCYNTFYHPSNMVLFVVGNLEPEEMMNQIRANQAKKDFTEAAPIKRHFPEEPKTVAVKERKIHFPVQIAKNMVGIKEDIGSLEGQVALKQEIIGDVALEMLFGTTSDTYLELYNQGIIDDSFGYDYTLQDSFSFVLVGGDAKDPDMQTTKIIEAIQAAAKNGLNEADLALVKRKRIGQFLRSLNSPEFIANQFSQYVMKSASLFDILPLMETVTLEEVNNFVKNLDSEERTTSFQLLPEK”, “not soluble”. As for “MASPSASADDVKLTADGKICLDDPAEFLKRKPKKSILKMKQDSSLEGKDGRAHFDEMNILATYHPTDKDYGSMKIDEPKTPYHHSDGESECDEGVLGVPTTRPRRVSLGNAIDPEKVAEGLAHPESGKSLSSAEDSEDEADLTEEQRAHRRDFEKKRRAHYNEGAALKHHPELEDDEEEATAAAAGAGGNMEH”, the “soluble on expression in E. coli” value is “not soluble”. With “MSLLNSPLAERIRPQNLSEYLSQNHLVGERGTLRQHILNGTIPSLILWGPPGTGKTTLANIIAQESKRPFYTLSAINSGVKDVREVIDKAKSAGGLFTAKNPILFIDEIHRFSKSQQDSLLAAVEKGWVTLIGATTENPSFEVIPALLSRCQVYVLDAFAKADLEQLLHRAMKIDEVLSIKDITIQETEALLRISGGDARKLLNIFELVINSQPSGPIVITNELVFEQVQSNPARYDKTGEQHYDIISAFIKSIRGSDPNAAVYWLARMIEGGEDLKFIARRMLILASEDIGNANPTALIMANNTFQAVSTIGYPESRIILSQCAIYLATSIKSNASYLAIGQAQQIVKQTGDLPVPLGLRNAPTKLMKELGYGQEYKYAHDHPGNFAQFDFLPTEISGTKIFNPGNNPREQAQREFLEKRWKEHYDYKPSKGEGHHHHHH”, the “soluble on expression in E. coli” value is on record as “soluble”. On to “MSIESIRNVIAKDMGEVDNVIQQKLHSQVALVRQVSEYIIHSGGKRLRPALVILAAGLFDYKGLHHHNLAAVVEFIHTATLLHDDVVDESELRRNQATANALFGNAASVLVGDFLYSRAFQMMVEVGNMRVMEVLADATNTIAEGEVLQLLNCRDPDVEEENYLQVIRFKTAKLFEAAARLGAILGGATPAEEEALAAYGMHLGTAFQLVDDLLDYSGNDQDTGKNLGDDLAEGKPTLPLIFAMRSGIPEQVDTVRHAIETGGKDGFEPILKIIQESGALDYAKQCAQNEANMAISAITAIRDSIYKQCLLELAEFAITRNY”, for which the “soluble on expression in E. coli” value is on record as “not soluble”.
